Data published in patent US20240376207A1 (JIANGSU HENGRUI PHARMACEUTICALS, published 2024).

T1: human TIGIT recombinant protein (human, UniProt Q495A1 22-141, limits assumed)
T1 construct: construct not described; also called human TIGT recombinant protein
T1 sequence (looked up): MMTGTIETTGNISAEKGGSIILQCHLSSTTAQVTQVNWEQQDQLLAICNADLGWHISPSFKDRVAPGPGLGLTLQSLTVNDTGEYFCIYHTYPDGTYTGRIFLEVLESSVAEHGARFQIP

T2: human PVRIG expressed on cells (human, UniProt Q6DKI7 41-326)
T2 sequence (looked up): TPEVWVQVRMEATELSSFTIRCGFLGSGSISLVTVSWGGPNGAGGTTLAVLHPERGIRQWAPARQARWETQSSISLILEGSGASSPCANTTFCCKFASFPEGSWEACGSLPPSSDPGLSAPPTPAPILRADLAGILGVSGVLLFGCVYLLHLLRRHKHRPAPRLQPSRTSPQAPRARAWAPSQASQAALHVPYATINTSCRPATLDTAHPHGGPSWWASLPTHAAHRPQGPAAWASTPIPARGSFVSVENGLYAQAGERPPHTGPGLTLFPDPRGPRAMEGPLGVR

T3: cynomolgus monkey PVRIG expressed on cells (cynomolgus monkey, UniProt A0A2K5WVV8 1-322)
T3 construct: whole, on cells; also called Monkey PVRIG FACS; cells overexpressing cynomolgus monkey PVRIG
T3 sequence: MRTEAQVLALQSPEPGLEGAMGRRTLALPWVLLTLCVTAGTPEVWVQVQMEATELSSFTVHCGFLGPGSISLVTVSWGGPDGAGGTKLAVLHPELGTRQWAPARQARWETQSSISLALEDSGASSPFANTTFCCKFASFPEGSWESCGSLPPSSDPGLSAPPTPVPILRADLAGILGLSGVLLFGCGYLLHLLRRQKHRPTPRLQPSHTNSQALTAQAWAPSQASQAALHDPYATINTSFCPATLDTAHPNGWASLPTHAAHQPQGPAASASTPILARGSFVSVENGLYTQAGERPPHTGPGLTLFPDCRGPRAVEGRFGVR

T4: his-tagged human PVRIG (h-PVRIG-his) recombinant protein (human, UniProt Q6DKI7 41-171, limits assumed)
T4 construct: bought from Acrobiosystems; also called Human PVRIG-his; human PVRIG recombinant protein; not shown: his tag
T4 sequence (looked up): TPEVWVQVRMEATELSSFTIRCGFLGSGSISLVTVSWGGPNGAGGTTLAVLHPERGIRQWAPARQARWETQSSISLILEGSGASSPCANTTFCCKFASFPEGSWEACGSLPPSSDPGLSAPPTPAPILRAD

B1: positive antibody Tab5 (antibody, human IgG4 S228P, kappa, F234A L235A, V domains shown)
VH: EVQLVESGGGVVKPGGSLRLSCAASGFTFGTSSMNWVRQAPGKGLEWVAVISFDGTEIHYADSVKGRFTISRDNSKSTVFLQMNSLRPDDTALYYCAKGSGNIYFYSGMDVWGQGTTVTVSS
VL: DIQMTQSPSTLSASVGDRVTITCRAGQSISGWLAWFQQKPGKAPNLLIYETSTLESGVPSRFSGSGSGTEYTLTISSLQPDDFATYYCQQYYSYPLTFGQGTKVEIKR
notes: Variable regions of CPA.7.021 (WO2016134333A1) on human IgG4 (S228P/F234A/L235A/K447A) and human kappa constant regions
B2: humanized anti-PVRIG/TIGIT bispecific antibody 1708-20H5 (bispecific antibody, human IgG4 S228P, kappa)
heavy: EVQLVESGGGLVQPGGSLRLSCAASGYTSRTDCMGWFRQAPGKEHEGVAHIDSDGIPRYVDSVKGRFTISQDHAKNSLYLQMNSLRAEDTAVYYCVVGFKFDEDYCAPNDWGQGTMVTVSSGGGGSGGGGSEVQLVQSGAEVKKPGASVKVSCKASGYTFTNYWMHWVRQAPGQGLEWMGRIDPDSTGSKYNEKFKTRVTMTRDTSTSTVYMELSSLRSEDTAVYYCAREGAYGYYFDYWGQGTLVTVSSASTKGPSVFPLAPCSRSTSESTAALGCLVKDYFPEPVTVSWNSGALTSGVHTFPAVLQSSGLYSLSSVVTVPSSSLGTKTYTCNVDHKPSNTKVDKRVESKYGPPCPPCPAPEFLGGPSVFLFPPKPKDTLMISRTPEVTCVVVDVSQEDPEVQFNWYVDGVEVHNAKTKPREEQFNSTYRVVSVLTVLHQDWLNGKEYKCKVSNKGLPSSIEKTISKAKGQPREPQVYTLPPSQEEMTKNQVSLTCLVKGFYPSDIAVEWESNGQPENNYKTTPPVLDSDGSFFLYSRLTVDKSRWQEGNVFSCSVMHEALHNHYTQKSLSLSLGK
light: DIQMTQSPSSLSASVGDRVTITCRASENIYSYLAWYQQKPGKSPKLLIYNARTLAEGVPSRFSGSGSGTDFTLTISSLQPEDFATYYCQYHSGSPLPFGGGTKVEIKRTVAAPSVFIFPPSDEQLKSGTASVVCLLNNFYPREAKVQWKVDNALQSGNSQESVTEQDSKDSTYSLSSTLTLSKADYEKHKVYACEVTHQGLSSPVTKSFNRGEC
B3: humanized anti-PVRIG/TIGIT bispecific antibody 1708-30H2 (bispecific antibody, human IgG4 S228P, kappa)
heavy: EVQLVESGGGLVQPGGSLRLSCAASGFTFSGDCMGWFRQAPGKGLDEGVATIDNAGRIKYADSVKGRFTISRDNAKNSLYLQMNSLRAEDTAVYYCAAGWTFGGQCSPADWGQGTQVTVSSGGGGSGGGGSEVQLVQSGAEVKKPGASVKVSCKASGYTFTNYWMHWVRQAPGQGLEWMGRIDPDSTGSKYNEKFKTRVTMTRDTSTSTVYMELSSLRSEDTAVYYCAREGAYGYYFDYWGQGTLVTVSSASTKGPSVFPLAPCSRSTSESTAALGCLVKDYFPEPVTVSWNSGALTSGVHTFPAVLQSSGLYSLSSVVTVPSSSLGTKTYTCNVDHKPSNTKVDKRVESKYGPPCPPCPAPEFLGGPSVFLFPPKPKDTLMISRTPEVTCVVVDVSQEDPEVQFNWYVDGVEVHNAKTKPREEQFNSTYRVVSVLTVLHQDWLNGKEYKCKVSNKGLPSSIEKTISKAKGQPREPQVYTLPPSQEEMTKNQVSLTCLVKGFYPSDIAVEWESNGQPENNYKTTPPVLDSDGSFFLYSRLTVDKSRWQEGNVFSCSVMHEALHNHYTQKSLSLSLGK
light: B2 light
B4: anti-PVRIG antibody 151 (antibody, human IgG4 S228P, F234A L235A, V domains shown)
VH: HVQLVESGGGSVQAGGSLRLSCVASASGFTYRPYCMAWFRQAPGKEREAVAGIDIFGGTTYADSVKGRFTASRDNAGFSLFLQMNDLKPEDTAMYYCAAGDSPDGRCPPLGQGLNYWGQGTQVTVSS
notes: no light chain
B5: anti-PVRIG antibody 30 (antibody, human IgG4 S228P, F234A L235A, V domains shown)
VH: HVQLVESGGGSVQAGGSLRLSCEASGYSYSGDCMGWFRRAPGKERDEGVATIDNAGRIKYADSVKGRFTISHGNGKYILYLQMNSLKPEDTDMYYCAAGWTFGGNCSPADWGQGTQVTVSS
notes: no light chain
B6: anti-PVRIG antibody 38 (antibody, human IgG4 S228P, F234A L235A, V domains shown)
VH: QVQLVESGGGSVQAGGSLRLSCAASPSTYGPSDMAWFRQAPGKQREGVATISAAGRLTYYTDSVRGRFTISRDNAKNTMYLQMNSLKPEDTAMYYCAADFAGGSSLFADYKYWGQGTQVTVSS
notes: no light chain
B7: anti-PVRIG antibody 39 (antibody, human IgG4 S228P, F234A L235A, V domains shown)
VH: QVQLVESGGGSVQAGGSLRLSCAASRYTSRTDCMGWFRQAPGKEREGVAHIDSDGIPRYVESVKGRFTISQDHAKNTLYLQMNSLKPEDSATYYCVVGFKFGDYCAPNDWGQGTQVTVSS
notes: no light chain

These binders were tested against T1, human TIGIT recombinant protein (assay: ELISA, coated antigen).
Description: A human, cynomolgus monkey, or mouse PVRIG protein (at a concentration of 1 μg/mL) was coated on a 96-well microplate at 100 μL per well, and incubated overnight at 4° C. The plate was washed three times with wash buffer at 250 μL per well. For each wash, the plate was shaken for 10 s to ensure adequate cleaning. A blocking solution (PBS+0.05% Tween20+1% BSA) was added at 300 μL/well, and the plate was incubated at room temperature for 1 h. The plate was washed three times with wash buffer at 250 μL per well. For each wash, the plate was shaken for 10 s to ensure adequate cleaning. Dilutions of the test anti-PVRIG antibodies were added at 100 μL/well. The plate was incubated at 37° C. for 1 h. The plate was washed three times with wash buffer at 250 μL per well. The […] anti-human IgG secondary antibody (Sigma, A8667) was added at 100 μL per well. The plate was incubated at 37° C. for 1 h. The plate was washed three times with wash buffer at 250 μL per well. TMB was added at 100 μL/well, and the plate was incubated in the dark for 15 min. 0.16 M sulfuric acid was added at 50 μL/well. The OD values at 450 nm were read by using a Thermo MultiSkanFc microplate reader, and the EC₅₀ values of the binding of the anti-PVRIG antibodies to PVRIG were calculated.
Similarly to Examples 4, 5 and 6, the binding of humanized anti-PVRIG/TIGIT bispecific antibodies to human and cynomolgus monkey TIGIT and blocking of binding of human TIGIT to ligand were detected, where PVRIG protein was replaced with TIGIT and PVRL2 was replaced with PVR.

Row | binding result | EC50 [nM] | Binder
1 | no binding |  | B1
2 |  | 0.145 | B2
3 |  | 0.153 | B3

Each binder was assayed against T2, human PVRIG expressed on cells (assay: cell-based or functional assay).

Row | PVRIG reporter gene cell activity EC50 [nM] | Binder
4 | 0.74 | B1
5 | 0.04 | B4
6 | 0.06 | B5
7 | 0.2 | B6
8 | 0.06 | B7

The binders below were run against T2, human PVRIG expressed on cells (assay: FACS, cells overexpressing target).
Description: (§1) The expression plasmid carrying human or cynomolgus monkey PVRIG gene sequence was transfected into HEK293 cells, and the over-expressing stable transfection monoclonal cell strain was obtained by antibiotic screening and infinite dilution. Overexpressing cells were seeded into a 96-well plate at 2×10⁵ cells/per well. The cells were centrifuged at 300 g for 5 min, the supernatant was then removed, 100 μL of the test antibody was added, and the mixture was incubated at 4° C. for 1 h. The mixture was centrifuged, the supernatant was removed, the plate was washed 3 times with 200 μL of wash buffer (PBS+2% FBS), and then 100 μL of an anti-human IgG secondary antibody (Invitrogen, A-11013) labeled with Alexa Fluor 488 diluted at 1:500 was added. The mixture was incubated at 4° C. for 1 h. The plate was centrifuged, and the supernatant was removed. The plate was washed 3 times with 200 μL of wash buffer (PBS+2% FBS). The cells were resuspended in 100 μL of PBS and tested on a flow cytometer (BD FACS Calibur or BD FACS Canto_II).
Binding of the humanized anti-PVRIG/TIGIT bispecific antibodies to human and cynomolgus monkey PVRIG and their blocking of the ligand of human PVRIG were detected according to the methods of Examples 4, 5 and 6.

Row | EC50 [nM] | Binder
9 | 0.789 | B1
10 | 0.075 | B2
11 | 0.056 | B3

What follows are binders tested against T2, human PVRIG expressed on cells (assay: FACS, HEK293 cells overexpressing target).
Excerpt: (§2) A flow cytometer (FACS) was used to detect binding properties of anti-PVRIG antibodies. A cell strain overexpressing human or cynomolgus monkey PVRIG was constructed, and after the addition of the antibody, the activity of the binding of the antibody to the antigen was detected by the addition of a secondary antibody.
as §1

Row | EC50 [nM] | Binder
12 | 2.13 | B1
13 | 0.01 | B4
14 | 0.24 | B6
15 | 0.004 | B7

The binders below were run against T3, cynomolgus monkey PVRIG expressed on … (assay: FACS, HEK293 cells overexpressing target).
Excerpt: as §2, §1

Row | binding result | EC50 [nM] | Binder
16 | no binding |  | B1
17 |  | 2.23 | B4
18 |  | 0.02 | B5
19 |  | 0.34 | B6
20 |  | 6.97 | B7

Each binder was assayed against T4, his-tagged human PVRIG (h-PVRIG-his) … (assay: BLI (Fortebio), antibody on Protein A sensor, 1:1 fit).
Description: A Protein A biosensor (Fortebio, #18-5010) was immersed in 200 μL of KB buffer (PBS, pH 7.4, 0.02% tween-20, 0.1% BSA) for 60 s for the wetting treatment. Then, the anti-PVRIG antibody was diluted to 10 μg/mL with the KB buffer, and the sensor was immersed in 200 μL of the solution until the reading was 1.2 nm. The sensor was immersed in the KB buffer for 100 s to elute excess antibody. The his-tagged human PVRIG was diluted in a 2-fold gradient to 64 nM-4 nM with the KB buffer. The sensor was immersed in the solution for 300 s for binding. The sensor was immersed in the KB buffer for 600 s for dissociation. The data were fitted in a dynamic 1:1 binding mode.

Row | Kd [nM] | koff [s⁻¹] | kon [M⁻¹ s⁻¹] | Binder
21 | 0.219 |  |  | B1
22 | 0.2 | 5.22e-05 | 261000 | B4
23 | 0.723 | 0.000205 | 284000 | B5
24 | 2.17 | 0.000287 | 132000 | B6
25 | 0.696 | 0.000169 | 242000 | B7
